# Data from patent US20190135918A1 (ICHNOS SCIENCES, published 2019).
# Where a chain is given by its changes, count along the chain named. Names and notes keep the numbering of the source. Like-named read-outs stand apart in the source and are kept apart here.
# B1: BEAT CD38-HB7bestfit/CD3 antibody (bispecific antibody, human IgG1, kappa, L234A L235A)
# heavy: QVQLQESGPGLVKPSETLSLTCTVSGFSLISYGVHWVRQPPGKGLEWLGVIWRGGSTDYNAAFMSRLTISKDNSKNQVSLKLSSVTAADTAVYFCAKTLITTGYAMDYWGQGTLVTVSSASTKGPSVFPLAPSSKSTSGGTAALGCLVKDYFPEPVTVSWNSGALTSGVHTFPAVLQSSGLYSLSSVVTVPSSSLGTQTYICNVNHKPSNTKVDKKVEPKSCDKTHTCPPCPAPEAAGGPSVFLFPPKPKDTLMISRTPEVTCVVVDVSHEDPEVKFNWYVDGVEVHNAKTKPREEQYNSTYRVVSVLTVLHQDWLNGKEYKCKVSNKALPAPIEKTISKAKGQPREPAVYTLPPSRDELTKNQVKLVCLVTGFYPSDIAVEWESNGQPENNYYTTPPVLDSDGSFSLVSWLNVDKSRWQQGNVFSCSVMHEALHNHYTQKSLSLSPGK
# light: DIQLTQSPSSLSASVGDRVTITCRASEDIYNRLAWYQQKPGKAPKLLISGATSLETGVPSRFSGSGSGKDYTLTISSLQPEDFATYYCQQYWSTPTFGQGTKLEIKRTVAAPSVFIFPPSDEQLKSGTASVVCLLNNFYPREAKVQWKVDNALQSGNSQESVTEQDSKDSTYSLSSTLTLSKADYEKHKVYACEVTHQGLSSPVTKSFNRGEC
# chain: EVQLVESGGGLVQPGGSLRLSCAASGYTFTRYTMHWVRQAPGKGLEWIGYINPSRGYTYYADSVKGRFTLSTDKSKNTAYLQMSSLRAEDTAVYYCARYYDDHYCLDYWGQGTLVTVSSGGGGSGGGGSGGGGSGGGASDIQLTQSPSSLSASVGDRVTITCRASSSVSYVAWYQQKPGKAPKRWIYDTSKLYSGVPSRFSGSGSGTDYTLTISSLQPEDFATYYCQQWSSNPPTFGQGTKVEIKGGGGTDKTHTCPPCPAPEAAGGPSVFLFPPKPKDTLMISRTPEVTCVVVDVSHEDPEVQFKWYVDGVEVHNAKTKPREEQYNSTFRVVSVLTVLHQDWLNGKEYKCKVSNKALPAPIEKTISKTKGQPREPEVATFPPSREEMTKNQVTLVCLVTGFYPSDIAVEWESSGQPENNYNTDPPLLESDGSFALSSRLRVDKSRWQQGNIFSCSVMHEALHNRFTQKSLSLSPGK
# notes: Anti-CD38 FAB arm and anti-CD3 epsilon scFv BEAT heavy chain (third chain)
# B2: BEAT CD38-HB7bestfit/CD3(SP34) antibody (bispecific antibody)
# heavy: QVQLQESGPGLVKPSETLSLTCTVSGFSLISYGVHWVRQPPGKGLEWLGVIWRGGSTDYNAAFMSRLTISKDNSKNQVSLKLSSVTAADTAVYFCAKTLITTGYAMDYWGQGTLVTVSSASTKGPSVFPLAPSSKSTSGGTAALGCLVKDYFPEPVTVSWNSGALTSGVHTFPAVLQSSGLYSLSSVVTVPSSSLGTQTYICNVNHKPSNTKVDKKVEPKSCDKTHTCPPCPAPEAAGGPSVFLFPPKPKDTLMISRTPEVTCVVVDVSHEDPEVQFKWYVDGVEVHNAKTKPREEQYNSTFRVVSVLTVLHQDWLNGKEYKCKVSNKALPAPIEKTISKTKGQPREPAVYTLPPSREEMTKNQVKLVCLVTGFYPSDIAVEWESSGQPENNYYTTPPMLDSDGSFSLVSWLNVDKSRWQQGNIFSCSVMHEALHNRFTQKSLSLSPGK
# light: B1 light
# chain: not shown
# B3: humanized 9G7 best-fit antibody (antibody, human IgG1, kappa, V domains shown)
# VH: QVTLKESGPTLVKPTQTLTLTCTFSGLSLSTSGKGVGWIRQPPGKALEWLAHIWWDDDKRYNPALKSRLTITKDTSKNQVVLTMTNMDPVDTATYYCARIELGRSYVMDYWGQGTLVTVSS
# VL: DIQMTQSPSSLSASVGDRVTITCQASQDVITSVAWYQQKPGKAPKLLIYSASYRYTGVPSRFSGSGSGTDFTFTISSLQPEDIATYYCQQHYTIPLTFGQGTKLEIKR
# notes: Human IgG1; light chain carries the F36Y back mutation (Kabat); also called 9G7 best-fit F36Y humanized variant
# B4: humanized 9G7 best-framework antibody (antibody, human IgG1, kappa, V domains shown)
# VH: EVQLVESGGGLVQPGGSLRLSCAFSGLSLSTSGKGVGWIRQAPGKGLEWLAHIWWDDDKRYNPALKSRLTISKDTSKNTVYLQMNSLRAEDTAVYYCARIELGRSYVMDYWGQGTLVTVSS
# VL: B3 VL with Q24R, Y36F, F73L, I83F, L104V
# notes: Human IgG1
# B5: first humanized 9G7 antibody prototype (best-fit approach, post CDR grafting) (antibody, human IgG1, kappa, V domains shown)
# VH: B3 VH
# VL: B3 VL with Y36F
# notes: Human IgG1 isotype; also called first antibody prototype; first humanized prototype
# B6: humanized HB-7 best-fit antibody (antibody, human IgG1, kappa, V domains shown)
# VH: QVQLQESGPGLVKPSETLSLTCTVSGFSLISYGVHWVRQPPGKGLEWLGVIWRGGSTDYNAAFMSRLTISKDNSKNQVSLKLSSVTAADTAVYFCAKTLITTGYAMDYWGQGTLVTVSS
# VL: DIQLTQSPSSLSASVGDRVTITCRASEDIYNRLAWYQQKPGKAPKLLISGATSLETGVPSRFSGSGSGKDYTLTISSLQPEDFATYYCQQYWSTPTFGQGTKLEIKR
# notes: Human IgG1 format
# B7: BEAT CD38-9G7Mouse/CD3 (bispecific antibody, human IgG1, kappa, L234A L235A)
# heavy: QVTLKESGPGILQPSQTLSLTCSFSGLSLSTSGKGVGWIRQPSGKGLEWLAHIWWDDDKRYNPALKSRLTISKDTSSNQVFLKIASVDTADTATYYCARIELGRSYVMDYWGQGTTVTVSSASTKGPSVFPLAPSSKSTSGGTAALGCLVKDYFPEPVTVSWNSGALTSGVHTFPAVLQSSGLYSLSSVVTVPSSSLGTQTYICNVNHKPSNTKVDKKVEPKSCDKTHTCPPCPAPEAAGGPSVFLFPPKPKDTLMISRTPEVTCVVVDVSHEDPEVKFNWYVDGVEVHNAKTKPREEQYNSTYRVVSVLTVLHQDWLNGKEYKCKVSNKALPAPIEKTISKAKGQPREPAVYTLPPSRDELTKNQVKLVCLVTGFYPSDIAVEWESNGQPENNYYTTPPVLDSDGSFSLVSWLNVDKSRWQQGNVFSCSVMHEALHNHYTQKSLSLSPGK
# light: DIVMTQSHKFMSTSVGDRVSISCKASQDVITSVAWFQQKPGQSPKLLIYSASYRYTGVPDRFTGSGSGTDFTFTISSVQAEDLAVYYCQQHYTIPLTFGAGTKLELKRTVAAPSVFIFPPSDEQLKSGTASVVCLLNNFYPREAKVQWKVDNALQSGNSQESVTEQDSKDSTYSLSSTLTLSKADYEKHKVYACEVTHQGLSSPVTKSFNRGEC
# chain: EVQLVESGGGLVQPGGSLRLSCAASGYTFTRYTMHWVRQAPGKGLEWIGYINPSRGYTYYADSVKGRFTLSTDKSKNTAYLQMSSLRAEDTAVYYCARYYDDHYCLDYWGQGTLVTVSSGGGGSGGGGSGGGGSDIQLTQSPSSLSASVGDRVTITCRASSSVSYVAWYQQKPGKAPKRWIYDTSKLYSGVPSRFSGSGSGTDYTLTISSLQPEDFATYYCQQWSSNPPTFGQGTKVEIKGGGGTDKTHTCPPCPAPEAAGGPSVFLFPPKPKDTLMISRTPEVTCVVVDVSHEDPEVQFKWYVDGVEVHNAKTKPREEQYNSTFRVVSVLTVLHQDWLNGKEYKCKVSNKALPAPIEKTISKTKGQPREPEVATFPPSREEMTKNQVTLVCLVTGFYPSDIAVEWESSGQPENNYNTDPPLLESDGSFALSSRLRVDKSRWQQGNIFSCSVMHEALHNRFTQKSLSLSPGK
# B8: chimeric HB-7 antibody (antibody, human IgG1, kappa, V domains shown)
# VH: KVQLQESGPSLVQPSQRLSITCTVSGFSLISYGVHWVRQSPGKGLEWLGVIWRGGSTDYNAAFMSRLSITKDNSKSQVFFKMNSLQADDTAIYFCAKTLITTGYAMDYWGQGTTVTVSS
# VL: DIELTQSPSSFSVSLGDRVTITCKASEDIYNRLAWYQQKPGNAPRLLISGATSLETGVPSRFSGSGSGKDYTLSITSLQTEDVATYYCQQYWSTPTFGGGTKLEIKR
# B9: VH5/VL3 (antibody, human IgG1, kappa, V domains shown)
# VH: EVQLVESGGGLVQPGGSLRLSCAASGYTFTRYTMHWVRQAPGKGLEWVGYINPSRGYTRYADSVKGRFTLSTDKSKNTAYLQMNSLRAEDTAVYYCARYYDDHYCLDYWGQGTLVTVSS
# VL: DIQLTQSPSSLSASVGDRVTITCRASSSVSYVAWYQQKPGKAPKLLIYDTSKLYSGVPSRFSGSRSGTDYTLTISSLQPEDFATYYCQQWSSNPPTFGQGTKVEIKR
# notes: human IgG1; also called humanized OKT3 VH5/VL3 antibody; copies: 2 + 2
# B10: VH10/VL8 (antibody, human IgG1, kappa, V domains shown)
# VH: B9 VH with V48I, R59Y, G66S, F68A
# VL: B9 VL with L45R, L46W, R65G
# notes: human IgG1; also called humanized OKT3 VH10/VL8 antibody; copies: 2 + 2
# B11: VH10/VL4 (antibody, human IgG1, kappa, V domains shown)
# VH: B9 VH with V48I, R59Y, G66S, F68A
# VL: B9 VL with L45R, L46W
# notes: human IgG1; also called humanized OKT3 VH10/VL4 antibody; copies: 2 + 2
# B12: VH5/VL6 (antibody, human IgG1, kappa, V domains shown)
# VH: B9 VH
# VL: B9 VL with L45R, L46W, P95F
# notes: human IgG1; also called humanized OKT3 VH5/VL6 antibody; copies: 2 + 2
# B13: VH6/VL5 (antibody, human IgG1, kappa, V domains shown)
# VH: B9 VH with V48I
# VL: B9 VL with V32M, A33N
# notes: human IgG1; also called humanized OKT3 VH6/VL5 antibody; copies: 2 + 2
# B14: VH9/VL8 (antibody, human IgG1, kappa, V domains shown)
# VH: B9 VH with V48I, R59Y, G66S
# VL: B9 VL with L45R, L46W, R65G
# notes: human IgG1; also called humanized OKT3 VH9/VL8 antibody; copies: 2 + 2
# B15: humanized OKT3 VH11/VL4 antibody (antibody, human IgG1, V domains shown)
# VH: B9 VH with V48I, R59Y, N84S
# VL: B9 VL with L45R, L46W
# notes: Human IgG1; copies: 2 + 2
# B16: humanized OKT3 VH8/VL4 antibody (antibody, human IgG1, V domains shown)
# VH: B9 VH with V48I, R59Y
# VL: B9 VL with L45R, L46W
# notes: Human IgG1; copies: 2 + 2
# B17: VH7/VL4 (antibody, human IgG1, kappa, V domains shown)
# VH: B9 VH with R59N
# VL: B9 VL with L45R, L46W
# notes: human IgG1; also called humanized OKT3 VH7/VL4 antibody; copies: 2 + 2
# B18: VH6/VL4 (antibody, human IgG1, kappa, V domains shown)
# VH: B9 VH with V48I
# VL: B9 VL with L45R, L46W
# notes: human IgG1; also called humanized OKT3 VH6/VL4 antibody; copies: 2 + 2
# B19: VH6/VL6 (antibody, human IgG1, kappa, V domains shown)
# VH: B9 VH with V48I
# VL: B9 VL with L45R, L46W, P95F
# notes: human IgG1; also called humanized OKT3 VH6/VL6 antibody; copies: 2 + 2
# B20: VH6/VL8 (antibody, human IgG1, kappa, V domains shown)
# VH: B9 VH with V48I
# VL: B9 VL with L45R, L46W, R65G
# notes: human IgG1; also called humanized OKT3 VH6/VL8 antibody; copies: 2 + 2
# B21: VH5/VL4 (antibody, human IgG1, kappa, V domains shown)
# VH: B9 VH
# VL: B9 VL with L45R, L46W
# notes: human IgG1; also called humanized OKT3 VH5/VL4 antibody; copies: 2 + 2
# Assays:
# human CD38 on cells [1] = target: T1, human CD38 on cells (human, UniProt P28907 1-300); test: cell-based or functional assay
# [2] = target: T2, soluble extracellular region of human CD38 fused to a 6-His-tag (human, UniProt P28907 43-300); test: SPR, antibody captured on protein G, CD38 injected
# T2 construct: Expressed with the murine VJ2C leader; also called human CD38 protein; human CD38 antigen
# [3] = target: T2, soluble extracellular region of human …; test: SPR
# [4] = target: T3, soluble extracellular region of cynomolgus monkey CD38 antigen fused to a 6-His-tag (cynomolgus monkey, UniProt Q5VAN0 45-301); test: SPR
# T3 construct: also called cynomolgus CD38
# human CD38 on cells [5] = target: T1, human CD38 on cells; test: cell-based or functional assay; remark: listed apart in the source
# [6] = target: T4, human CD3 epsilon on cells (human, UniProt P07766 23-207); test: FACS staining of HPB-ALL cells, human IgG1 format, graded relative to chimeric OKT3
# T4 construct: whole, on cells; On cells it stands in the CD3/TCR complex; also called HPB-ALL cells (human CD3 epsilon positive T cell tumour line); CD3 on human T cells
# Procedure: (§1) HPB-ALL cells (DSMZ, Braunschweig, Germany, Cat. No: ACC483) were used as CD3 positive cell line for FACS staining. […] After washing, cells were incubated with a 1/200 dilution of anti-Human Fc-PE (EBioscience, Vienna, Austria) for 45 min on ice. Cells were then washed again and resuspended in 200 ul FACS buffer.
# [7] = target: T4, human CD3 epsilon on cells; test: as above; remark: listed apart in the source
# Procedure: as §1
binder,measurement,setting,value
B1,"T cell redirected killing of RPMI 8226 myeloma cells, RDL-FACS method, EC50",human CD38 on cells [1],0.0022 nM
same,Kd,[2],3.2 nM
B2,"T cell redirected killing of Daudi cells, RDL-FACS method, EC50",human CD38 on cells [1],0.0018 nM
B3,fold improvement of affinity over the first prototype,[3],2 fold
same,Kd,[4],3.2 nM
same,Kd,[2],0.5 nM
B4,Kd,[4],1 nM
same,Kd,[2],0.4 nM
B5,Kd,[3],1 nM
same,fold lower binding than the mouse parental antibody,[3],3 fold
B6,Kd,[2],3.6 nM
B7,"killing assay against Daudi cells, flow cytometry readout, EC50 (pM)",human CD38 on cells [5],3.2 pM
B8,Kd,[2],2.5 nM
B9,binding result,[6],binds
B10,binding result,[7],binds
B11,binding result,[7],binds
B12,binding result,[6],binds
B13,binding result,[6],binds
B14,binding result,[7],binds
B15,binding result,[7],binds
B16,binding result,[7],binds
B17,binding result,[7],binds
B18,binding result,[6],binds
B19,binding result,[6],binds
B20,binding result,[7],binds
B21,binding result,[6],binds
